Patent publication US20210061861A1, “D-PEPTIDIC COMPOUNDS FOR VEGF” (Reflexion Pharmaceuticals, Inc., priority 2019, published 2021)
Numbering of substitutions follows the chain as printed. Bridges are numbered along the chain shown (N, C = ends). Where no end group is shown, it is not given here. [ ]: non-standard residue; d: D form.

Key:
[1] = target: T1, VEGF-A binding to VEGFR1 receptor (Homo sapiens, UniProt P15692); assay: VEGF-A:VEGFR1 inhibition in Octet assay; format: biochemical; settings: for inhibition at 0.08 µM: read-out: % inhibition at 80 nM compound, D-peptidic compounds
T1 sequence (P15692 214-315 limits assumed): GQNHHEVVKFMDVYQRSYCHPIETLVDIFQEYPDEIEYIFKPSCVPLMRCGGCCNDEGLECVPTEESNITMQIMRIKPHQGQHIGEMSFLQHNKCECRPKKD
Method: Compounds of interest were assessed for inhibition of VEGF-A:VEGFR1 in an Octet assay.
The resulting dimeric compounds were assayed for VEGF-A inhibition activity in an octet assay.

[2] = system: HUVEC cell proliferation; settings: read-out: IC50 for inhibition of cell proliferation in response to VEGF signaling; HUVEC, recombinant VEGF-A
From the text: Here, HUVEC cell proliferation is increased in the presence of recombinant VEGF-A and antagonist compounds that block VEGF-A signaling reduce HUVEC cell proliferation.

[3] = system: VEGF-A signaling through VEGFR2; assay: VEGFR2 luciferase reporter cell signaling assay (KDR/NFAT-RE HEK293); format: cell-based; settings: 150 pM VEGF-A; read-out: IC50, inhibition of VEGFR2 signaling (luciferase)
Method: Here VEGF-A activates VEGFR2 signaling in 293 cells resulting in luciferase expression as a functional readout. Inhibition of VEGF-A signaling in this system results in a loss of luciferase signal.
Measurement of VEGF cellular signaling was performed using the VEGF Bioassay (Promega). Briefly, HEK293 cells are engineered to express VEGFR-2 coupled to a luciferase response element (KDR/NFAT-RE HEK293). VEGF signaling through VEGFR-2 mediates expression of luciferase which can be quantified using bioluminescence. […] Following incubation Bio-Glo is added to wells according to the manufacturer's protocol and relative luminescence units (RLUs) were measured on a PerkinElmer 2300 Enspire Multimode plate reader. Data plotted are mean±standard deviation of triplicate measurements. IC50 values were derived from 3-parameter fits using Prism (GraphPad) and error reported are derived from fits.

[4] = target: T2, VEGF-A (Homo sapiens, UniProt P15692); settings: 5 μM 978336 to saturation, then 5 μM 978336 plus 1 μM 11055
T2 sequence (P15692 214-315): T1 sequence (P15692 214-315 limits assumed)

[5] = target: T3, L-VEGF-A (Homo sapiens, UniProt P15692); assay: ka (10^6/M^-1s^-1)
T3 construct: Biotinylated VEGF-A(8-109) was immobilized on a biotin CAPture chip

[6] = target: T3, L-VEGF-A; assay: kd (s^-1)
[7] = target: T4, Biotinylated human VEGF-A121 (human, UniProt P15692-9 27-147, biotinylated); assay: non-equilibrium VEGF-A121 blocking ELISA
T4 construct: Bought; also called VEGF-A121-biot
T4 sequence (looked up): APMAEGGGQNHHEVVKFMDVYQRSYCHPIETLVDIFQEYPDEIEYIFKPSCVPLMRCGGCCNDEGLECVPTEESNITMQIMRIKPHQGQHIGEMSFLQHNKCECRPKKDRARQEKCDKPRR

[8] = target: L-VEGF-A (8-109) (Homo sapiens (Human)) (UniProt P15692); assay: SPR on natural L-VEGF-A
[9] = target: T4, Biotinylated human VEGF-A121; assay: equilibrium VEGF-A121/VEGFR1 blocking ELISA
[10] = target: VEGF-A (form not stated) (UniProt P15692); assay: cell-based or functional assay
[11] = target: L-VEGF-A (8-109) (Homo sapiens (Human)) (UniProt P15692); assay: SPR, biotinylated VEGF-A(8-109) on a biotin CAPture chip, D-protein in solution, global single site kinetic fit
[12] = target: VEGF-A (form not stated) (UniProt P15692); assay: VEGF-A blocking ELISA on coated VEGFR1-Fc
[13] = target: L-VEGF-A (8-109) (Homo sapiens (Human)) (UniProt P15692); assay: SPR per Examples 7, 8, 11 (method not named in Table 4)
[14] = target: VEGF-A (form not stated) (UniProt P15692); assay: equilibrium VEGF-A/VEGFR1 blocking ELISA, 150 pM VEGF-A
[15] = target: L-VEGF-A (8-109) (Homo sapiens (Human)) (UniProt P15692); assay: SPR
[16] = target: D-VEGF-A (8-109), synthetic mirror-image protein (Homo sapiens (Human)) (UniProt P15692); assay: SPR; L-peptidic compound on D-VEGF-A
[17] = target: D-VEGF-A (8-109), synthetic mirror-image protein (Homo sapiens (Human)) (UniProt P15692); assay: competitive phage ELISA; L-peptidic compound on D-VEGF-A
[18] = target: VEGF-A (form not stated) (UniProt P15692); assay: Octet; inhibition of VEGF-A (10 nM) binding to VEGFR1
[19] = target: VEGF-A (form not stated) (UniProt P15692); assay: Octet; inhibition of VEGF-A binding to VEGFR1
[20] = target: T5, VEGF-A (form not stated) (UniProt P15692-9 27-147, limits assumed); assay: equilibrium VEGF-A/VEGFR1 blocking ELISA, 150 pM VEGF-A; soluble VEGFR1-Fc against coated VEGFR1-Fc
T5 construct: also called biotinylated-VEGF-A; recombinant VEGF-A
T5 sequence (looked up): T4 sequence (looked up)

[21] = target: T4, Biotinylated human VEGF-A121; assay: equilibrium VEGF-A121/VEGFR1 blocking ELISA; soluble VEGFR1-Fc against coated VEGFR1-Fc

“[dP][dA][dL][dL][dK][dN][dA][dK][dE][dD][dA][dI][dA][dE][dL][dK][dK][dA]G[dI][dT][dE][dP][dH][dV][dI][dS][dF][dI][dN][dH][dA][dP][dY][dV][dS][dH][dV][dN]G[dL][dK][dN][dA][dI][dL]G[dR][dT][dV][dP] [1.1.1.2 (pa, pis), pallknakedaiaelkkaGitephvisfinhapyvshvnGlknailGrtvp]” was tested, and the inhibition at 0.08 µM [1] was 18%.

In the case of “[dT][dI][dD][dQ][dW][dL][dL][dK][dN][dA][dK][dE][dD][dA][dI][dA][dE][dL][dK][dK][dA]G[dI][dT][dE][dP][dH][dV][dI][dS][dF][dI][dN][dH][dA][dP][dY][dV][dS][dH][dV][dN]G[dL][dN][dA][dI][dL]G[dR][dT][dV][dP] [1.1.1(c21a) (-kaha, Grtvp), tidqwllknakedaiaelkkaGitephvisfinhapyvshvnGlnailGrtvp]”, the inhibition at 0.08 µM [1] is reported as 27%.

bevacizumab [reference compound] gave an IC50 [2] of 0.7 nM and an IC50 [3] of 0.53 nM.

“tidqwllknakedaiaelkkaGitephvisfinhapyvshvnGlknailkaha [Compound 11055]” was tested, and the “binding of 978336 and 11055 together to VEGF-A” value [4] was “additive binding”.

For “tidqwllknakedaiaelkkaGitephvisfinhapyvshvnGlknailkahac(acetyl)”, the “% inhibition at 80 nM compound” value ([1]; D-peptidic compounds) was 68%.

With “yhiqwvcknakedaiaelkkaGitephvisfinhapncshvnGlknailkaha ([dY][dH][dI][dQ][dW][dV][dC][dK][dN][dA][dK][dE][dD][dA][dI][dA][dE][dL][dK][dK][dA]G[dI][dT][dE][dP][dH][dV][dI][dS][dF][dI][dN][dH][dA][dP][dN][dC][dS][dH][dV][dN]G[dL][dK][dN][dA][dI][dL][dK][dA][dH][dA]-NH2; disulfide 7-38; not fully specified; printed as yhiqwvcknakedaiaelkkaGitephvisfinhapncshvnGlknailkaha) [Compound 979110]” the “ka (10^6/M^-1s^-1)” value [5] was 2.14 10^6/M^-1s^-1 and the “kd” value [6] was 0.0052 s⁻¹.

B1: RFX-979110 (designed binder)
chain: [dY][dH][dI][dQ][dW][dV][dC][dK][dN][dA][dK][dE][dD][dA][dI][dA][dE][dL][dK][dK][dA]G[dI][dT][dE][dP][dH][dV][dI][dS][dF][dI][dN][dH][dA][dP][dN][dC][dS][dH][dV][dN]G[dL][dK][dN][dA][dI][dL][dK][dA][dH][dA]-NH2
modifications: disulfide 7-38; not fully specified
Molecule B1 has a fold improvement of IC50 over RFX-11055 [7] of 15 fold, a Kd [8] of 3.6 nM and an IC50 [9] of 7.6 nM. It also gave an HUVEC cell proliferation, apparent IC50 [10] of 131 nM, an HUVEC cell proliferation, potency against 11055 [10] of 4 fold and a fold decrease in HUVEC cell proliferation, potency against bevacizumab [10] of 185 fold. The koff [11] was 0.0052 s⁻¹, the kon [11] was 2.14e+06 M⁻¹ s⁻¹ and the fold better IC50 than 11055 [12] was 14.8 fold. For the same molecule, the Kd [13] was 2.3 nM, the IC50 [14] was 7 nM and the fold affinity improvement over RFX-11055 [15] was 19 fold. It also gave a fold improvement of VEGF binding over 11055 [15] of 10 fold.

B2: 1.1 (L-peptidic) (designed binder)
chain: TIDQWLLKNAKEDAIAELKKAGITEDHVFNFINHAPYVSHVNGLKNAILKAHA
In the case of B2, the Kd [16] is reported as 140 nM and the IC50 [17] is reported as 100 to 105 nM.

LLKNAKEDAIAELKKAGITEDHVFNFINHAPYVSHVNGLKNAILKAHA (designed binder) [1.1 (-tidqw) (L-peptidic)] gave a Kd [16] of 450 nM.

B3: 1.1 (-kaha, adfl) (L-peptidic) (designed binder)
chain: B2 chain with K50A, A51D, H52F, A53L
B3 showed an IC50 [17] of 12 nM.

B4: 1.1 (-kaha, edyl) (L-peptidic) (designed binder)
chain: B2 chain with K50E, A51D, H52Y, A53L
For B4, the IC50 [17] was 5 nM.

B5: 1.1 (-kaha, GehGsp) (L-peptidic) (designed binder)
chain: TIDQWLLKNAKEDAIAELKKAGITEDHVFNFINHAPYVSHVNGLKNAILGEHGSP
With B5 the IC50 [17] was 14 nM.

For LLKNAKEDAIAELKKAGITEPHVISFINHAPYVSHVNGLKNAILEDWYL (designed binder) [1.1.1(c21a) (-tidqw, -kaha, edwyl) (L-peptidic)], the IC50 [17] was 0.86 to 1.1 nM.

B6: 1.1 (D-peptidic) (designed binder)
chain: [dT][dI][dD][dQ][dW][dL][dL][dK][dN][dA][dK][dE][dD][dA][dI][dA][dE][dL][dK][dK][dA]G[dI][dT][dE][dD][dH][dV][dF][dN][dF][dI][dN][dH][dA][dP][dY][dV][dS][dH][dV][dN]G[dL][dK][dN][dA][dI][dL][dK][dA][dH][dA]
B6 gave an IC50 [18] of 105 nM.

B7: 1.1.1.2 (pa, pis) (D-peptidic) (designed binder)
chain: [dP][dA][dL][dL][dK][dN][dA][dK][dE][dD][dA][dI][dA][dE][dL][dK][dK][dA]G[dI][dT][dE][dP][dH][dV][dI][dS][dF][dI][dN][dH][dA][dP][dY][dV][dS][dH][dV][dN]G[dL][dK][dN][dA][dI][dL]G[dR][dT][dV][dP]
B7 gave a % inhibition at 80 nM compound [19] of 18%.

B8: VEGFR1-Fc (Fc fusion, UniProt P17948 27-756, looked up)
chain: SKLKDPELSLKGTQHIMQAGQTLHLQCRGEAAHKWSLPEMVSKESERLSITKSACGRNGKQFCSTLTLNTAQANHTGFYSCKYLAVPTSKKKETESAIYIFISDTGRPFVEMYSEIPEIIHMTEGRELVIPCRVTSPNITVTLKKFPLDTLIPDGKRIIWDSRKGFIISNATYKEIGLLTCEATVNGHLYKTNYLTHRQTNTIIDVQISTPRPVKLLRGHTLVLNCTATTPLNTRVQMTWSYPDEKNKRASVRRRIDQSNSHANIFYSVLTIDKMQNKDKGLYTCRVRSGPSFKSVNTSVHIYDKAFITVKHRKQQVLETVAGKRSYRLSMKVKAFPSPEVVWLKDGLPATEKSARYLTRGYSLIIKDVTEEDAGNYTILLSIKQSNVFKNLTATLIVNVKPQIYEKAVSSFPDPALYPLGSRQILTCTAYGIPQPTIKWFWHPCNHNHSEARCDFCSNNEESFILDADSNMGNRIESITQRMAIIEGKNKMASTLVVADSRISGIYICIASNKVGTVGRNISFYITDVPNGFHVNLEKMPTEGEDLKLSCTVNKFLYRDVTWILLRTVNNRTMHYSISKQKMAITKEHSITLNLTIMNVSLQDSGTYACRARNVYTGEEILQKKEITIRDQEAPYLLRNLSDHTVAISSSTTLDCHANGVPEPQITWFKNNHKIQQEPGIILGPGSSTLFIERVTEEDEGVYHCKATNQKGSVESSAYLTVQGTSDKSN
notes: Bought; also called VEGFR1-Fc fusion; soluble decoy receptor VEGFR1-Fc; not shown: Fc part
Molecule B8 has an IC50 [20] of 0.22 nM and an IC50 [21] of 0.23 nM.
